For test [1], the target named is PHD finger of human BPTF protein (human). Kind of test: ITC.
The target in a further test is chromodomain of CBX5. Kind of test: ITC.

In the case of “H3KC4me3 peptide MLA (methyllysine analog of H3K4me3)”, in test [1], the fold weaker Kd than the native H3K4me3 peptide came out at 13 fold. trimethylated H3 lysine 9 peptide registered a fold tighter binding than the H3KC9me3 peptide in the test with chromodomain of CBX5 of 6 fold.

Values taken from paper PMC5780203.
